Measured values reported in publication PMC9242475.

Assays:
[1] = target: HAdV-D37 protein IIIa tagged with C-terminal 3X FLAG (human adenovirus D type 37 (HAdV-D37)); assay: SPR; BIAcore T200, 25°C, […] (25 mM HEPES, 150 mM NaCl, 0.05% P20, 2 mM DTT, pH 7.4); […]; 1:1 binding model
[2] = target: HAdV-D37 protein IIIa tagged with C-terminal 3X FLAG (human adenovirus D type 37 (HAdV-D37)); assay: SPR; […] (80 nM or 2.5 nM) […]

Sequence of partial recombinant RANBP2 protein (#ab268915, Abcam) (domain or fragment) (P49792 1346-1815): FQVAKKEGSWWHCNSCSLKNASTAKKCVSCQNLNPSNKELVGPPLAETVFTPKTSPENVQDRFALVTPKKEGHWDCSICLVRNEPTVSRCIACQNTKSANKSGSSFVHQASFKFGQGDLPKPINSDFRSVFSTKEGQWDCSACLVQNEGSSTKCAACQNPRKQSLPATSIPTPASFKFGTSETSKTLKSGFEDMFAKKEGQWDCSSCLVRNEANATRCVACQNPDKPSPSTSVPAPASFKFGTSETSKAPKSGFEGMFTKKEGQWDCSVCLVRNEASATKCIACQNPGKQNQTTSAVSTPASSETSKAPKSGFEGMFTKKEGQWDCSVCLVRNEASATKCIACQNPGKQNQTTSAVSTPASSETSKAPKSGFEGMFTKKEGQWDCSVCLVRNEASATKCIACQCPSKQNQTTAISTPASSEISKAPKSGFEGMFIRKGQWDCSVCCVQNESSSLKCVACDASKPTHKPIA

Work on “partial recombinant RANBP2 protein (#ab268915, Abcam) (domain or fragment)” yielded a Kd [1] of 13.7 nM, a koff [1] of 0.000658 s⁻¹ and a kon [1] of 48000 M⁻¹ s⁻¹. For the same substance, the Kd [2] was 122 nM.

“recombinant USP9X protein (#ab271784, Abcam) (from UniProt Q93008 1-2554) (enzyme)” showed a Kd [1] of 32 nM, a koff [1] of 0.00119 s⁻¹ and a kon [1] of 37200 M⁻¹ s⁻¹. It also gave a Kd [2] of 1.8 nM.
